Assay results reported in US20230242621A1 (VIR BIOTECHNOLOGY, published 2023).

Biological target: T1, HBsAg (hepatitis B surface antigen; genotype or subtype not stated in the example) (hepatitis B virus)
T1 chain: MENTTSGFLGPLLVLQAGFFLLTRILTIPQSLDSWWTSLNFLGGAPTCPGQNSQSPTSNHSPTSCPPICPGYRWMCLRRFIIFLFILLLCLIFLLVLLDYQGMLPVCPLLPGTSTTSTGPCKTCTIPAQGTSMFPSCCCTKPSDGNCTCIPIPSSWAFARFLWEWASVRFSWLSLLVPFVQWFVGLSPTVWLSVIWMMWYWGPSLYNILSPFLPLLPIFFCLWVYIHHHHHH
Experiment: ELISA on HBsAg; IgG1 with wild-type Fc

B1: HBC34-v36 (IgG1 with wild-type Fc, allotype G1m17, 1) (antibody, V domains shown)
VH: ELQLVESGGGWVQPGGSQRLSCAASGRIFRSFYMSWVRQAPGKGLEWVATINQDGSEKLYVDSVKGRFTISRDNAKNSLFLQMNNLRVEDTAVYYCAAWSGNSGGMDVWGQGTTVSVSS
VL: SYELTQPPSVSVSPGQTVSIPCSGDKLGNKNVAWFQHKPGQSPVLVIYQDSKRPSGIPERFSGSNSGNTATLTISGTQAMDEAAYFCQTFDSTTVVFGGGTRLTVLG
notes: also called L-CDR2 GL
  EC50: 0.7 ng/mL
